Measurements as given in US20230398116A1, “Agent for reversing resistance to anticancer drugs” (Y'S AC CO., LTD., priority 2020, published 2023).
Values belong to the molecule of their own block, whether it stands above or below them.

Key:
[1] = tested on: MDA-MB468 cells; assay: MTT assay / cell proliferation (confluence) assay, MDA-MB468; assay type: cell-based, human; settings: MDA-MB-468, erlotinib 30 μM or 50 μM, 48 hours, MTT, FIG. 10
Procedure: (§1) Human and mouse breast cancer cells (1×10^4) were cultured in 10% FCS containing RPMI1640 medium on a 96-well flat bottom plate (Corning, Tewksbury, MA) at 37° C. for 24 hours, and then stimulated with IL-26 for 48 hours in the presence or absence of EGFR-TKI (gefitinib or erlotinib) at various concentrations, a signal inhibitor, and a neutralizing antibody. HUVECs were seeded in a 96-well flat bottom plate at 5×10^3 cells/well in a 2% FBS-containing EGM medium in which growth factors were reduced by half, and cultured at 37° C. for 12 hours. Thereafter, the medium was aspirated, and a recombinant human IL-26 dimer was adjusted to a final concentration of 10 ng/mL in a 2% FBS-containing EGM medium containing no growth factors, and added to the cells. The stimulation was started in the presence or absence of control human IgG and anti-human IL-26 antibodies, and the cells were cultured for 48 hours. Thereafter, a concentration of 20 μl or 1/10 of a 5 mg/ml MTT solution (Tetrazolium monosodium salt, WST-8) was added to each well, and the plate was allowed to stand for 1 hour. The absorbance at 450 nm/595 nm was measured using Microplate Reader (Bio-Rad, Hercules, CA) and data was analyzed with Microplate Manager 6 software (Bio-Rad).
(§2) Human and mouse breast cancer cells (1×10^4) were cultured in RPMI1640 medium containing 10% FCS for 24 hours at 37° C. on a 96-well flat bottom plate (Corning), and then stimulated with IL-26 (30 ng/ml) in the presence or absence of various concentrations of gefitinib and a neutralizing antibody. Cell proliferation was measured as cell confluence using IncuCyte ZOOM (Essen Bioscience, Ann Arbor, MI).

[2] = tested on: E0771 cells; assay: MTT assay / cell proliferation (confluence) assay, E0771; assay type: cell-based, mouse; settings: E0771, erlotinib 30 μM or 50 μM, 48 hours, MTT, FIG. 10
Procedure: as §1, §2

[3] = tested on: HCC70 cells; assay: MTT assay / cell proliferation (confluence) assay, HCC70; assay type: cell-based, human; settings: HCC70, erlotinib 30 μM or 50 μM, 48 hours, MTT, FIG. 10
Procedure: as §1, §2

[4] = molecular target: T1, recombinant human IL-26/AK155 monomer, Cat #1375-IL/CF, R&D Systems (human, UniProt Q9NPH9 22-171); assay: ELISA, human IL-26 monomer coated at 0.5 µg/ml, antibody diluted 2-fold from 5 µg/ml, HRP anti-human kappa detection
T1 construct: also called recombinant human IL-26 monomer
T1 sequence (looked up): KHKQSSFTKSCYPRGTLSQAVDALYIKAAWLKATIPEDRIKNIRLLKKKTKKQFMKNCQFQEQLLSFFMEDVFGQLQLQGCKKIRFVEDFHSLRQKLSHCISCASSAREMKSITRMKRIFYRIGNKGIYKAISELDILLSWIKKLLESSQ
Procedure: (§3) The antigen binding of purified Ch69-10-IgG1, Hu69-10A-IgG1, and Hu69-10B-IgG1 was analyzed by ELISA. ELISA plates were coated overnight at 4° C. with the addition of 0.5 μg/ml human IL-26 (recombinant human IL-26/AK155 monomer, Cat #1375-IL/CF, R&D Systems, Minneapolis, MN) at 100 μl/well in 0.2 M sodium carbonate buffer (pH 9.4). Wells were washed with the wash buffer and blocked with the ELISA buffer. Subsequently, 100 μl/well of test antibody (mouse 69-10, Ch69-10-IgG1, Hu69-10A-IgG1, or Hu69-10B-IgG1) serially diluted 2-fold in RPMI medium starting at 5 μg/ml was added to measure a binding with IL-26. After incubation at room temperature for 1 hour and washing the plates with a wash buffer, a 1/2,000-diluted HRP-conjugated goat anti-human kappa chain polyclonal antibody (Bethyl Laboratories) (for Ch69-10-IgG1, Hu69-10A-IgG1 and Hu69-10B-IgG1) or a 1/2,000-diluted HRP-labeled goat anti-mouse kappa chain polyclonal antibody (Bethyl Laboratories) (for mouse 69-10) in ELISA buffer was added at 100 μl/well to detect bound antibodies. After incubation at room temperature for 30 min and washing with the wash buffer, 100 μl/well of ABTS substrate (Sigma Aldrich) was added to start color development and 100 μl/well of 2% oxalic acid was added to stop the color development. The absorbance was measured at 405 nm.

[5] = tested on: phosphorylation of AKT, JNK and EphA3 in HCC70 cells; assay: Western blotting of phosphorylation in HCC70 cells; assay type: cell-based, human; settings: gefitinib 40 μM
Procedure: To analyze the phosphorylation of AKT, ERK, p38, JNK, STAT3, and EphA3, E0771 cells and HCC70 cells in 100 mm dishes were stimulated with IL-26 ([…]) and an anti-EphA3 polyclonal antibody (pAb) (10 μg/ml) for a specified period of time. After stimulation, the cells were lysed with a 2% protease inhibitor mixture (Sigma-Aldrich) and/or RIPA buffer added with 1×PhosSTOP (Roche Diagnostics, Tokyo, Japan), and a lysate was separated in a reduced state by SDS-PAGE (15 μg/lane). Immunoblots were performed using an anti-phosphorylated AKT antibody, an anti-phosphorylated ERK antibody, an anti-phosphorylated p38 antibody, an anti-phosphorylated JNK antibody, an anti-phosphorylated STAT3 antibody, and an anti-phosphorylated EphA3 antibody that recognize both human and mouse antigens. For reprobing, the membrane was immersed in a stripping buffer. After the stripping procedure, the membranes were re-probed with anti-pan-AKT, anti-pan-ERK, anti-pan-p38, anti-pan-JNK, anti-pan-STAT3, and anti-pan-EphA3 antibodies recognizing both human and mouse antigens. Images were taken using a C-Digit Blot scanner (MS Techno Systems, Inc., Japan).

[6] = molecular target: T2, IL-26 (Homo sapiens, UniProt Q9NPH9); assay: ELISA of antigen binding to human IL-26; parameters: purchased R&D Systems 1375-IL/CF; settings: plates coated with 0.5 μg/ml human IL-26 monomer; calculated using GraphPadPrism
T2 sequence (Q9NPH9 22-171): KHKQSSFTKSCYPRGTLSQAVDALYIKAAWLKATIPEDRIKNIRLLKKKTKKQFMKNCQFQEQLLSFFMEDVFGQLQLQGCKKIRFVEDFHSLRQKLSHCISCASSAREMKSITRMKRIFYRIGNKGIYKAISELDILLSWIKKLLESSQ
Procedure: as §3

[7] = molecular target: T3, EphA3/IL-26 interaction (Homo sapiens, UniProt Q9NPH9); assay: Immunofluorescence of rhIL-26-Alexa 488 and cell surface EphA3 on E0771 cells; assay type: cell-based, mouse; settings: E0771, antibodies 10 μg/ml, FIGS. 19 and 20
T3 construct: purchased R&D Systems; host or cells: IL-26 was purchased; EphA3 is endogenous on E0771 cells
T3 sequence (Q9NPH9 22-171): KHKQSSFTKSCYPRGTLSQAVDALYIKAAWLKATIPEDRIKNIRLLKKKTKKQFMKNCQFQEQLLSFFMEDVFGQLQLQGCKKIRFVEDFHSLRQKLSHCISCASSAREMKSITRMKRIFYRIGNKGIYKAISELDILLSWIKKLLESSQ
Procedure: E0771 and HCC70 cells (1×10^5) were cultured for 24 hours in RPMI1640 medium with 10% FCS on Lab-Tek chamber slides (Thermo Fisher Scientific). The cultured cells were stimulated with Alexa Fluor 488 labeled IL-26 (30 ng/ml) in the presence or absence of recombinant human and mouse EphA3-Ig for 1 hour. HCC70 cells were stimulated with IL-26 (30 ng/ml) in the presence or absence of gefitinib (40 μM), a signal inhibitor, and a neutralizing antibody for 24 hours. Subcutaneous tumor samples obtained from mice were fixed in 4% paraformaldehyde (Thermo Fisher Scientific) and embedded in OCT compound (Tissue-Tek (registered trademark), Sakura Finetek, Japan). Cells and slides were immunostained with each antibody and observed using a Zeiss inverted microscope and Axiovision 2.0 program (Carl Zeiss, Germany). The fluorescence intensity was quantified with Image-J software (NIH). The images were captured using a 100×400× objective.

[8] = HCC70, Ephrin A5 200 ng/ml, FIG. 26 left

Molecule: C#Cc1cccc(Nc2ncnc3cc(OCCOC)c(OCCOC)cc23)c1 [erlotinib, Erlotinib, reference compound]
cell proliferation under erlotinib [1]: inhibitory effect of erlotinib on cell proliferation
cell proliferation under erlotinib [2]: inhibitory effect of erlotinib on cell proliferation
cell proliferation under erlotinib [3]: inhibitory effect of erlotinib on cell proliferation

B1: Hu69-10A-IgG1/kappa antibody (Hu69-10A-IgG1) (antibody, V domains shown)
VH: QVTLKESGPALVKPTQTLTLTCTFSGFSLSTSGMGVGWIRQPPGKALEWLAHIWWDDDKYYNPSLKSQLTISKDTSKNQVVLTMTNMDPVDTATYYCVRGGITATHYYAMDYWGQGTTVTVSS
VL: DIQMTQSPSSLSASVGDRVTITCLASQTIGTWLSWYQQKPGKAPKLLIYAATSLADGVPSRFSGSGSGTKFTFTISSLQPEDIATYYCQQLYSSPWTFGGGTKVEIK
notes: also called h69-10A; humanized anti-IL-26 antibody Hu69-10A
EC50 [4]: 0.304 µg/mL

B3: Ephrin A5: known ligand of EphA3 (protein, UniProt P52803 21-203, looked up)
Ephrin-A5: QDPGSKAVADRYAVYWNSSNPRFQRGDYHIDVCINDYLDVFCPHYEDSVPEDKTERYVLYMVNFDGYSACDHTSKGFKRWECNRPHSPNGPLKFSEKFQLFTPFSLGFEFRPGREYFYISSAIPDNGRRSCLKLKVFVRPTNSCMKTIGVHDRVFDVNDKVENSLEPADDTVHESAEPSRGEN
phosphorylation of AKT [5, 8]: slightly enhanced
phosphorylation of JNK and EphA3 [5, 8]: little effect
dephosphorylation of EphA3, activation of AKT and JNK phosphorylation ([5]; HCC70, IL-26 30 ng/ml or Ephrin A5 200 ng/ml, FIG. 26): such changes were not observed

Other lines, results leading:

EC50 [4]: 0.396 µg/mL
B2: Hu69-10B IgG1/kappa antibody (Hu69-10B-IgG1) (antibody, V domains shown)
VH: QVTLKESGPALVKPTQTLTLTCTFSGFSLSTSGMGVGWIRQPPGKALEWLAHIWWDDDKYYNPSLKSQLTISKDTSKNQVVLTMTNMDPVDTATYYCVRGGITATHYYAMDYWGQGTTVTVSS
VL: DIQMTQSPSSLSASVGDRVTITCLASQTIGTWLSWYQQKPGKAPKLLIYAATSLADGVPSRFSGSGSGTDFTFTISSLQPEDIATYYCQQLYSSPWTFGGGTKVEIK
notes: also called h69-10B; humanized anti-IL-26 antibody Hu69-10B

EC50 [4]: 0.299 µg/mL
B4: chimeric 69-10 IgG1/kappa antibody (Ch69-10-IgG1) (antibody, V domains shown)
VH: QVTLKESGPGILKPSQTLSLTCSFSGFSLSTSGMGVGWIRQPSGKGLEWLAHIWWDDDKYYNPSLKSQLTISKDTSRNQVFLKITSVDTADTATYYCVRGGITATHYYAMDYWGQGTSVTVSS
VL: DIQMTQSPASQSASLGESVTISCLASQTIGTWLSWYQQKPGKSPQLLIYAATSLADGVPSRFSGSGSGTKFSFKISSLQAEDFVSYYCQQLYSSPWTFGGGTKLEIK
notes: also called clone 1H8

EC50 values (binding to human IL-26, ELISA) [6]: 0.299 µg/mL
B5: Ch69-10-IgG1: chimeric 69-10 IgG1/kappa antibody with mouse 69-10 VH and VL and human constant regions (antibody, V domains shown)
VH: QVTLKESGPGILKPSQTLSLTCSFSGFSLSTSGMGVGWIRQPSGKGLEWLAHIWWDDDKYYNPSLKSQLTISKDTSRNQVFLKITSVDTADTATYYCVRGGITATHYYAMDYWGQGTSVTVSS
VL: DIQMTQSPASQSASLGESVTISCLASQTIGTWLSWYQQKPGKSPQLLIYAATSLADGVPSRFSGSGSGTKFSFKISSLQAEDFVSYYCQQLYSSPWTFGGGTKLEIK

inhibition of colocalization of IL-26 with EphA3 (EphA3/IL-26 interaction) [7]: inhibited EphA3/IL-26 interaction
B6: mouse soluble EphA3: recombinant mouse EphA3 Fc chimeric protein purchased from R&D Systems (protein)
chain: ELSPQPSNEVNLLDSKTIQGELGWISYPSHGWEEISGVDEHYTPIRTYQVCNVMDHSQNNWLRTNWVPRNSAQKIYVELKFTLRDCNSIPLVLGTCKETFNLYYMESDDHGVKFREHQFTKIDTIAADESFTQMDLGDRILKLNTEIREVGPVNKKGFYLAFQDVGACVALVSVRVYFKKCPFTVKNLAMFPDTVPMDSQSLVEVRGSCVNNSKEEDPPRMYCSTEGEWLVPIGKCTCNAGYEERGFICQACRPGFYKASDGAAKCAKCPPHSSTQEDGSMNCRCENNYFRAEKDPPSMACARPPSAPRNVISNINETSVILDWSWPLDTGGRKDITFNIICKKCGWNVRQCEPCSPNVRFLPRQLGLTNTTVTVTDLLAHTNYTFEIDAVNGVSELSSPPRQYAAVSITTNQAAPSPVMTIKKDRTSRNSISLSWQEPEHPNGIILDYEVKYYQKQEQETSYTILRARGTNVTISSLKPDTTYVFQIRARTAAGYGTNSRKFEFETSPDSFSISGENSH
modifications: left off: a dimerising Fc or GST
notes: recombinant mouse EphA3 Fc chimeric protein purchased from R&D Systems
